Sequences and labels used below:
B1: Transcriptional activator GLI3 (Homo sapiens), P10071 (parent)
chain: MEAQSHSSTTTEKKKVENSIVKCSTRTDVSEKAVASSTTSNEDESPGQTYHRERRNAITMQPQNVQGLSKVSEEPSTSSDERASLIKKEIHGSLPHVAEPSVPYRGTVFAMDPRNGYMEPHYHPPHLFPAFHPPVPIDARHHEGRYHYDPSPIPPLHMTSALSSSPTYPDLPFIRISPHRNPTAASESPFSPPHPYINPYMDYIRSLHSSPSLSMISATRGLSPTDAPHAGVSPAEYYHQMALLTGQRSPYADIIPSAATAGTGAIHMEYLHAMDSTRFSSPRLSARPSRKRTLSISPLSDHSFDLQTMIRTSPNSLVTILNNSRSSSSASGSYGHLSASAISPALSFTYSSAPVSLHMHQQILSRQQSLGSAFGHSPPLIHPAPTFPTQRPIPGIPTVLNPVQVSSGPSESSQNKPTSESAVSSTGDPMHNKRSKIKPDEDLPSPGARGQQEQPEGTTLVKEEGDKDESKQEPEVIYETNCHWEGCAREFDTQEQLVHHINNDHIHGEKKEFVCRWLDCSREQKPFKAQYMLVVHMRRHTGEKPHKCTFEGCTKAYSRLENLKTHLRSHTGEKPYVCEHEGCNKAFSNASDRAKHQNRTHSNEKPYVCKIPGCTKRYTDPSSLRKHVKTVHGPEAHVTKKQRGDIHPRPPPPRDSGSHSQSRSPGRPTQGALGEQQDLSNTTSKREECLQVKTVKAEKPMTSQPSPGGQSSCSSQQSPISNYSNSGLELPLTDGGSIGDLSAIDETPIMDSTISTATTALALQARRNPAGTKWMEHVKLERLKQVNGMFPRLNPILPPKAPAVSPLIGNGTQSNNTCSLGGPMTLLPGRSDLSGVDVTMLNMLNRRDSSASTISSAYLSSRRSSGISPCFSSRRSSEASQAEGRPQNVSVADSYDPISTDASRRSSEASQSDGLPSLLSLTPAQQYRLKAKYAAATGGPPPTPLPNMERMSLKTRLALLGDALEPGVALPPVHAPRRCSDGGAHGYGRRHLQPHDAPGHGVRRASDPVRTGSEGLALPRVPRFSSLSSCNPPAMATSAEKRSLVLQNYTRPEGGQSRNFHSSPCPPSITENVTLESLTMDADANLNDEDFLPDDVVQYLNSQNQAGYEQHFPSALPDDSKVPHGPGDFDAPGLPDSHAGQQFHALEQPCPEGSKTDLPIQWNEVSSGSADLSSSKLKCGPRPAVPQTRAFGFCNGMVVHPQNPLRSGPAGGYQTLGENSNPYGGPEHLMLHNSPGSGTSGNAFHEQPCKAPQYGNCLNRQPVAPGALDGACGAGIQASKLKSTPMQGSGGQLNFGLPVAPNESAGSMVNGMQNQDPVGQGYLAHQLLGDSMQHPGAGRPGQQMLGQISATSHINIYQGPESCLPGAHGMGSQPSSLAVVRGYQPCASFGGSRRQAMPRDSLALQSGQLSDTSQTCRVNGIKMEMKGQPHPLCSNLQNYSGQFYDQTVGFSQQDTKAGSFSISDASCLLQGTSAKNSELLSPGANQVTSTVDSLDSHDLEGVQIDFDAIIDDGDHSSLMSGALSPSIIQNLSHSSSRLTTPRASLPFPALSMSTTNMAIGDMSSLLTSLAEESKFLAVMQ
partner: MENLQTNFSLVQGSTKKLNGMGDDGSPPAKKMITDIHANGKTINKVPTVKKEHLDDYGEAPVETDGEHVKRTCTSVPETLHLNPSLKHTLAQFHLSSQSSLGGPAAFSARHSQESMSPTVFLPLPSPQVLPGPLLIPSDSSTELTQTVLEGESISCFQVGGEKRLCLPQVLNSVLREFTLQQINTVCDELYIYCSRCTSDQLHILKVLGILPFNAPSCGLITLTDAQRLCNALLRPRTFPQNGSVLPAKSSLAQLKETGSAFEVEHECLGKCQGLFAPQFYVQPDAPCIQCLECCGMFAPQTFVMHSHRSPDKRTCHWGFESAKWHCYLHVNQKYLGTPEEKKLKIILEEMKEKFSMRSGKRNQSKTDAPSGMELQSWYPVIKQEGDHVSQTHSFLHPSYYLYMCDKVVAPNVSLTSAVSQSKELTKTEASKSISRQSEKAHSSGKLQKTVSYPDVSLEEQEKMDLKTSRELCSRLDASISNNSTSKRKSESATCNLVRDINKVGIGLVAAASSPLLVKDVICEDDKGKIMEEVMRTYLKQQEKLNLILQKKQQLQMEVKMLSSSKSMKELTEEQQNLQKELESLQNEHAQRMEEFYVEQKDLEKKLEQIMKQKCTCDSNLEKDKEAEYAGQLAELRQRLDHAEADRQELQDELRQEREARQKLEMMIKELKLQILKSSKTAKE

This assay covers variants of B1. The conditions noted are these: with skil_human SKIL.
With M111T, the “effect of a mutation on the interaction” value was “decreasing interaction strength”.

(Values after IntAct's records for PubMed 24819706.)
